According to paper PMC9684126:

Tested on: Smc5/6 holo-complex, Cy3-labelled (8 subunits) (Saccharomyces cerevisiae (expressed in W303-1a))
Assay: single-molecule optical tweezers with confocal fluorescence, lifetime
Details: biotin at the two ends, Single-molecule buffer not given in the material (20 nM Cy3-Smc5/6 and 2 mM ATP in Fig. 6b; ~5 or ~60 pN), entrapment: 10 mM HEPES-KOH pH 7.5, 150 mM KAc

Question: With “lambda DNA tether, dsDNA (low force ~5 pN, or dsDNA regions at high force)” as the substance, how does the binding signal read?
Answer: 76 s

Question: “lambda DNA tether, ss-dsDNA junctions at high force (~60 pN)” was tested. Which binding signal (5 nM Smc5/6 then buffer only, high force) did it give?
Answer: > 290 s
